Here are results for one substance from publication PMC13534887.

This assay concerns the target PaMprF H566C mutant (Pseudomonas aeruginosa). The assay can be described thus: cross-linking + native gel or EMSA; purified enzymes in GDN and in nanodisc, with cross-linker; SDS added to the sample before loading on the BN-PAGE gel. (A gel shift assay detects complexes by their altered migration in electrophoresis.)

On to PaMprF H566C mutant (enzyme), for which the stoichiometry N (in general, a count of units in the complex or per binding partner) was found to be 2.
